In article PMC8556327 one finds stoichiometry N data, which are given here for 1 substance.

Where “and” joins values, the source holds several entries; their conditions need not be identical. Equal values may be shown once.

For experiment [1], the target named is C-phycocyanin (αβ) monomer from Thermoleptolyngbya sp. O-77 (TlCPC) (Thermoleptolyngbya sp. O-77). Kind of experiment: crystal structure; TlCPC-6 crystals (rhombus or rod), sitting-drop vapor diffusion at 20 °C; reservoir 8% Tacsimate (pH 5.0), 20% polyethylene glycol 3,350; 1.65 Å.
Experiment [2] has the same target. Nature of the experiment: AUC; sedimentation velocity, TlCPC 0.92 mg/mL in potassium phosphate buffer (pH 7.0, 10 mM), 20 °C, 60,000 rpm, absorbance at 277 nm, c(s) distribution (SEDFIT); major species 5.24 S, minor species 3.15 S (monomer), 7.97 S and 11.32 S.
Experiment [3] has the same target. Nature of the experiment: crystal structure; TlCPC-8 crystals (cube), sitting-drop vapor diffusion at 20 °C (also obtained at 42 °C); reservoir 1.6 M sodium chloride, 8% polyethylene glycol 6,000, 20% glycerol; space group I432; 2.77 Å.
Experiment [4] shares this target. Kind of experiment: cryo-EM structure; TlCPC 6.7 and 10 mg/mL in potassium phosphate buffer (pH 7.0, 10 mM), flash-frozen on holey carbon grid; single particle analysis; hexamers and octamers in the same specimens.

As usually defined, the stoichiometry N is a count of units in the complex or per binding partner. As for “C-phycocyanin (αβ) monomer from Thermoleptolyngbya sp. O-77 (TlCPC) (complex)”, the stoichiometry N in experiment [1] is 6; in experiment [2], 2 and 6 and 4; in experiment [3], 8; in experiment [4] it was 6 and 8.
